A word on the Vmax: it is the top rate of the reaction or transport when substrate is in excess. For orientation: kcat means the maximal rate divided by the concentration of active sites. For orientation: kcat/Km means the second-order rate constant that governs catalysis at low substrate concentration. One may read the Km as the substrate concentration at which the rate is half of its maximum.

Common to all, as to experiment: purified protein
What all share (type): biochemical, Cupriavidus necator

Substrate in series [1]: O=C(O)C(=O)[C@@H](O)[C@H](O)[C@H](O)CO
As to conditions: ATP 1.25 mM, Mg2+ 5 mM, Tris-HCl pH 8.0, KCl 50 mM, 25 °C, sigmoid, Hill n = 1.4.

Substrate in series [2]: O=C(O)C(=O)C[C@H](O)[C@H](O)CO
Conditions: ATP 1.25 mM, Mg2+ 5 mM, Tris-HCl pH 8.0, KCl 50 mM, 25 °C.

Substrate in series [3]: O=C(O)C(=O)C[C@@H](O)[C@H](O)CO
Conditions: ATP 1.25 mM, Mg2+ 5 mM, Tris-HCl pH 8.0, KCl 50 mM, 25 °C.

Substrate in series [4]: O=C(O)C(=O)[C@H](O)[C@@H](O)[C@H](O)CO
As to conditions: ATP 1.25 mM, Mg2+ 5 mM, Tris-HCl pH 8.0, KCl 50 mM, 25 °C.

Substrate in series [5]: Nc1ncnc2c1ncn2[C@@H]1O[C@H](COP(=O)(O)OP(=O)(O)OP(=O)(O)O)[C@@H](O)[C@H]1O
Conditions: KG 1.25 mM, Mg2+ 5 mM, Tris-HCl pH 8.0, KCl 50 mM, 25 °C.

B1: KGUKCnec (2-ketogluconate kinase from C. necator H16) (Cupriavidus necator H16) (protein)
chain: MSTDLDVVTLGEAMLMLVAGEAGPLEGAQTFHKRTAGAETNVAIGLSRLGLKVGWASRLGDDSMARYLLGEMQREGVDCSQVVCEPGERTGFQFKGRVDDGSDPPVEYHRRGSAASRMNPEHLDGRWLRRSRHLHVTGVFPALAAGTQAATRQAIATMQAAGRTISFDPNLRPTLWASPELMRETLNDLAQQCDWVLPGIEEGRFLTGHAEPERIAAFYRARGARLVVVKLGADGAYFDGEAGTGHVEAFSVEHVVDTVGAGDGFAVGVISALLEGRPVRDAVRRGAWIGARAVQVRGDTEGLPTHAQLAAASL
notes: full-length ORF (PCR primers kguK-NdeI 5' […] 3' / kguK-BamHI 5' […] 3'
B1: in the series “purified protein [1]”, the K0.5 is 0.35 ± 0.03 mM. For the same protein, the Vmax in “purified protein [1]” came out at 10.4 µmol/min/mg; in the series “purified protein [2]”, 18.2 µmol/min/mg; in “purified protein [3]” it was 3.7 µmol/min/mg; in “purified protein [4]” it was 1.9 µmol/min/mg; in the series “purified protein [5]”, 10.2 µmol/min/mg. Besides, the kcat in “purified protein [1]” is 5.8 ± 0.2 s⁻¹; in “purified protein [2]”, 10.2 ± 0.5 s⁻¹; in “purified protein [3]” it was 2.1 ± 0.2 s⁻¹; in “purified protein [4]”, 1.1 ± 0.1 s⁻¹; in “purified protein [5]” it was 5.71 ± 0.05 s⁻¹. Besides, the kcat/Km amounted to 16800 ± 1300 M⁻¹ s⁻¹ in the series “purified protein [1]”; 7370 ± 970 M⁻¹ s⁻¹ in the series “purified protein [2]”; 83 ± 20 M⁻¹ s⁻¹ in the series “purified protein [3]”; 246 ± 70 M⁻¹ s⁻¹ in “purified protein [4]”; 78200 ± 2500 M⁻¹ s⁻¹ in the series “purified protein [5]”. For the same protein, the Km in the series “purified protein [2]” was 1400 ± 200 µM; in “purified protein [3]”, 25000 ± 4000 µM; in the series “purified protein [4]” it was 4000 ± 1000 µM; in “purified protein [5]” it was 73 ± 2 µM.

For the origin of these results see article PMC6651773, “2-Ketogluconate Kinase from Cupriavidus necator H16: Purification, Characterization, and Exploration of Its Substrate Specificity” (Molecules, 2019).
